This is an account of results in a protein production outcome set (Wang et al. 2014).

This series can be described thus: label from the status in PepcDB records.
With “MSVAHENARRIISDILGKQNIERVWFVGCGGSLTGFWPGKYFLDCEASKLAVGYITSNEFVHATPKALGKNSVVILASQQGNTAETVAAARVAREKGAATIGLVYQPDTPLCEYSDYIIEYQWARYPETVDPAQQKAAYSLWLALEILAQTEGYAQYDELVSAFGRFSDVVHGAQRQVQEDAQRFAAEWKDEKVVYMMGSGPSFGAAHQESICILLEMQWINSASIHSGEYFHGPFEITEPGTPFILLQSSGRTRPLDDRAIRFIERYQGKLQLIDADKLGIQDLSTDVGEYFCGLLHNCVLDVYNLALATARNHPLTTRRYMWKVEY”, the protein production entry is “not failed”. The entry for “MSVASLPSFLCLSQESSRRASARRESPSSPRTWAGWIPVTGTGMRECVVALCLLLTLIFAAASPALAFNPDEVLKDPVLEQRARNLTSQLRCMVCQNQSIDDSNAELARDLRVLVRERLVQGDSDKAVIDYVVSRYGEFVLLKPRLSLRTLLLWGAPIGLTLAGIFAVFVFSRRRATQERPQKLSADEEERIRNLIEK” is “failed”. “MSVDDSADVVVVGAGPAGSAAAAWAARAGRDVLVIDTATFPRDKPCGDGLTPRAVAELHQLGLGKWLADHIRHRGLRMSGFGGEVEVDWPGPSFPSYGSAVARLELDDRIRKVAEDTGARMLLGAKAVAVHHDSSRRVVSLTLADGTEVGCRQLIVADGARSPLGRKLGRRWHRETVYGVAVRGYLSTAYSDDPWLTSHLELRSPDGAVLPGYGWIFPLGNGEVNIGVGALSTSRRPADLALRPLISYYTDLRRDEWGFTGQPRAVSSALLPMGGAVSGVAGSNWMLIGDAAACVNPLNGEGIDYGLETGRLAAELLDSRDLARLWPSLLADRYGRGFSVARRLALLLTFPRFLPTTGPITMRSTALMNIAVRVMSNLVTDDDRDWVARVWRGGGQLSRLVDRRPPFS”: the protein production result is listed as “failed”.

For “MSVDPKLIRQKIQRLDAGARPRVLDLFSGCGGISLGFQSAGFEIVAAVENDPDAARSHGLNFHHGEDRHSIPRNITVTSPAALATALGLGAAASAFDVIVGGPPCQAFARVGRSKLREIAEHPEAFRHDSRARLYIEYLAYVEACAPLAVVIENVPDMLNHGGHNLAAEIGEILASKDYVVRYTLLNAAFYGVPQMRERMILIAIRKELADDVEFPAPTHWIDLPSGYQGSRAVALKLATGRDLLTEATGGSAYKAAPEAVETLAPAVSTQQAIGDLPEIMARELLAEGALRRGTRRLDAMLPYGGHNQQNDYVKEMRTWPGFEGSSHVRDHVIRYLPRDYRIFAGLKPGDQYPEAHRYALSLFEAELERLHAQGKRPEDGSSEWDALKAAFVPPYDAGKFPNKWRKMEATTPARTLLAHLGKDGYSHIHYDSRQARPISVREAARLQSFPDGFRFAGTMNPAFRQIGNAVPPLLARAIAQTLRSQLVRGVATEDLPRVAGAGR”, the protein production entry is recorded as “failed”. The entry for “MSVEIKRVDKHHCLDLVEIFIELEQYYFGDKAASEQDLANYLSHQVFSEHSGVKVIAAVEHDKVLGFATYTIMFPAPKLSGQMYMKDLFVSSSAPGKGIGLQLMKHLATIAITYNCQRLDWTAESTNPTARKFYKSIGASLIREKEYYRFEGNGLNKLAKSL” is “not failed”. The entry for “MSVFTKTSVASAATTCLFVLLWSSGAIVSKLGLAHASPFAFLLLRSALALAGLLLIGPLLGLRWPRTRGSILRALGTGCVLLGAYQIFYLLALDTHVTPGVMATVMGVQPILTVVLMERQRSWSRLFGLGLGLGGLIMVVYQGINLGGVSLAGMLFALLALVSMTFGSILQKRITDNPMGTLPLQYLAGFAMCALFAPLQPLHVEWTGSFVGALLWMGLVVSLLATLLLYRLIAKGNLVNVTSLFYLVPAVTAVMDLLIFGNRLAPLSLLGMGLIVVGLLFVFRKPAARLAEA” is “failed”. With “MSVGCARIRRALRHGTSPARQHDAAAASHRRAPVVRIRMDIDAALGEQYVDYRCSRCGMVAQAAVAGYGTGLVVNGVSLSNAQLEAEVGAARAARLAPCPRCGHRGRPALLGVLLVGATVGVVAAMAIGFTVAELFHRSDPEGRLAPVVGTATFVAVVATMTALKLRSVRRRVRFHRVML”, the protein production result is “failed”. The entry for “MSVIHPLQNLLTSRDGSLVFAIIKNCILSFKYQSPNHWEFAGKWSDDFDKIQESRNTTAKEQQGQSSENENENKKLKSNKGDSIKRTAAKVPSPGLGAPPIYSYIRNLRLTSDESRLIACADSDKSLLVFDVDKTSKNVLKLRKRFCFSKRPNAISIAEDDTTVIIADKFGDVYSIDINSIPEEKFTQEPILGHVSMLTDVHLIKDSDGHQFIITSDRDEHIKISHYPQCFIVDKWLFGHKHFVSSICCGKDYLLLSAGGDDKIFAWDWKTGKNLSTFDYNSLIKPYLNDQHLAPPRFQNENNDIIEFAVSKIIKSKNLPFVAFFVEATKCIIILEMSEKQKGDLALKQIITFPYNVISLSAHNDEFQVTLDNKESSGVQKNFAKFIEYNLNENSFVVNNEKSNEFDSAIIQSVQGDSNLVTKKEEIYPLYNVSSLRKHGEHYS” is “failed”. With “MSVIIAANNLCLQYQQNEPVIKHANLRIKRKDFVFISGPSGSGKSTLLRSFYGDLKLFSGKLEVCNINMNNASKATILDLRKNIGVVFQDYKLIQDYTIEQNIKLPMVICGIKKEECHLQLEKLLGHIDLRHKANRYPKELSGGEQQRVAMARAMANCPELILADEPTGNLDDYSSDKIWSLLRGMNTQLNATIVVVTHKFPKNFSAYHRKFYIEDGEVYEYS” the entry was “failed”. With “MSVKRVLRNTIRKEKEENRVTEPLTETPELSAKYAWFFDLDGTLAEIKPHPDQVVVPDTILQGLQLLATASDGALALISGRSMVELDALAKPYRFPLAGVHGAERRDINGKTHIVHLPDAIARDISVQLHTVIAQYPGAELEAKGMAFALHYRQAPQHEDALMTLAQRITQIWPQMALQQGKCVVEIKPKGTSKGEAIAAFMQEAPFIGRTPVFLGDDLTDESGFAVVNRLGGMSVKIGTGATQASWRLAGVPDVWSWLEMITTALQQKRENNRSDDYESFSRSI” the entry was “failed”; with “MSVKVSEYMTKKVVTVSKDNTVKDVIKLLKETGHNSFPVVENGKLIGIVSVHDIVGKDDNEKVENVMTKRKDMVVTTPDANIMDVGRIMFRTGFSKLPVVDEENNLVGIISNMDVIRSQIEKTTPKKLENIIKTYKSLGYNLRVEKEEVDVNKLRPTQNKIHADELVGRMYELKKGLAEPIIAIKTKRGDYYILVDGHHRAVAAYKMGVPKLDAYVIYLDTDKKLGIEKTAEIMNLKSLEDVKIVDSDDENSVKVIKYNKNGVLG”, “failed”.

As for “MSVLDLPELALDCILDLLPPSGLCSMARVCSSLRERCVSDHLWEKHLKTKWGKILGPAAHREWQCYISSSTYHLDSPHHQTGNLGFAKIISLIRSLSSVFREDKQRRGYASSLPLDSSMSCYLSLETGRFWFPAQVYNRENGHVGFMLSCYDAELSYDTHTDTFQARYPPHGRRASAIEKGVTWDRIRAAPIDASPHLLHVSDSLKELKPGDHIEIQWRRNKEFPYGK”, the protein production result is “failed”. Consider “MSVMYKKILYPTDFSETAEIALKHVKAFKTLKAEEVILLHVIDEREIKKRDIFSLLLGVAGLNKSVEEFENELKNKLTEEAKNKMENIKKELEDVGFKVKDIIVVGIPHEEIVKIAEDEGVDIIIMGSHGKTNLKEILLGSVTENVIKKSNKPVLVVKRKNS”, for which the protein production entry is given as “not failed”. On to “MSVTVFIPGDSAALAVGANRVAEAIAREAASRNLDVQIVRNGSRGMLWLEVLVEVRTEHGRIAYGPVKAADVTSLFDADFLDGGDHRLCLGPTKDIPFLKNQTRLTFARCGVTDPLSLEDYRNYQGMKGLEKAVTMEPLAIVAQVTESGLRGRGGAGFPTGIKWKTVADARADQKYIVCNADEGDSGTFADRMIMEGDPFVLIEGMAIAGLAVGATKGFIYTRSEYPYAIKVMEKAIEIARREGILGSSVLGSGRAFDMEVRMGAGAYVCGEETSLLNSLEGKRGTVRAKPPLPALQGLFGKPTVVNNVISLASIPVIMDRGAAFYRDFGVGRSHGTIPIQLAGNIRYGGLYETAFGLTLGQLVNDIGGGTITGRPVKAVQVGGPLGAYFPVSLFDTIFDYEAFTAAGGLIGHAGIVVFDDTADMLHQARFALEFCAVESCGKCTPCRIGSTRGVETVDKIALGIEREKNTALLEDLCETMKFGSLCALGGFTPYPVMSALRHFPQDFAPIPRVEAAELEHHHHHH”, for which the protein production entry was “failed”. The entry for “MSVTVRVPAKVNVQLAVGAARPDGFHDLANVFLAVSLYDEVTATPAADGLRVTCEGPDAGQVPLDRTNLAARAAEALAARYGRAPDVHLHIAKDIPVAGGMAGGSADGAGALLACDALWGTGASREELLEICAGLGSDVPFSLVGGAALGTGRGERLAELE” is “failed”.
